Source: the supplement of paper PMC10126150
± gives the standard deviation of the averaged measurements.

Tested on: ATP
Assay: switch fluorescence ratio, 500 uM ATP over buffer (Cy3 cluster intensity, sum of 5 cycles each) (fold (ratio)); higher = stronger signal-on switching upon ATP binding; sequences stand for … in TCGTCGGCAGCGTCAGATGTGTATAAGAGACAGTTTTTTTTTTTTTTTTTTTTTTTTT…TC
Conditions: aptamer strand: ATP DNA aptamer (quencher-CACCTGGGGGAGTATTGCGGAGGAAGG + anchor), 100 nM annealed; ATP concentration: 500 uM
How it was run: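 Imaging in selection buffer was followed by imaging after 15 min with 500 uM ATP at 22 °C, for Cy3-labelled switching-strand clusters annealed to 100 nM quencher-labelled ATP aptamer on a modified Illumina MiSeq flow-cell. Five of these buffer/ATP cycles ran, separated by NaOH stripping and re-annealing. The fluorescence ratio per cluster is summed target-cycle over summed buffer-cycle Cy3 intensity, averaged per switch-domain sequence; clusters outside 100-1000 RFU were removed.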
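Also: ATP exposure 15 min at 22 °C before imaging.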

CATATGCGTC
switch fluorescence ratio: 1.02 ± 0.035

AGGGTTATGT
switch fluorescence ratio: 0.971 ± 0.03

CGTCATTCGC
switch fluorescence ratio: 1.05 ± 0.16

CGAACTTGTG
switch fluorescence ratio: 1.01 ± 0.015

TATTTTAGGA
switch fluorescence ratio: 0.9743 ± 0.003

TCATTTTTGG
switch fluorescence ratio: 1 ± 0.012

GGGTATAGTA
switch fluorescence ratio: 0.973 ± 0.044

TCAATGTTTT
switch fluorescence ratio: 0.9846 ± 0.0031

ATGGAGGGGG
switch fluorescence ratio: 1.02 ± 0.047

TCGGTCCCAG
switch fluorescence ratio: 1.03 ± 0.014

GATTGGGTTT
switch fluorescence ratio: 0.999 ± 0.019

TCAATTAGGC
switch fluorescence ratio: 1.05 ± 0.027

CTCGAGGGTA
switch fluorescence ratio: 1 ± 0.022

TTAGAACATC
switch fluorescence ratio: 1.009 ± 0.0053

GTTTGGTAGT
switch fluorescence ratio: 0.979 ± 0.038

AAGATTGTTT
switch fluorescence ratio: 0.986 ± 0.033

GGTATGTAAG
switch fluorescence ratio: 0.995 ± 0.02

CGTTAGGGCA
switch fluorescence ratio: 0.979 ± 0.02

AAGATAATAG
switch fluorescence ratio: 0.993 ± 0.024

GGGGGTTCTA
switch fluorescence ratio: 1.02 ± 0.011

AAGACCGGGA
switch fluorescence ratio: 1.01 ± 0.04

TTAAGGTCCG
switch fluorescence ratio: 0.987 ± 0.047

TAAAATATGG
switch fluorescence ratio: 1.06 ± 0.11

GGATGAGGTT
switch fluorescence ratio: 0.982 ± 0.044

TGTGATGAGT
switch fluorescence ratio: 0.992 ± 0.024

TAAGAGACGC
switch fluorescence ratio: 1.014 ± 0.0061

TTGACCTGGG
switch fluorescence ratio: 1.1 ± 0.098

GGAGTACCTG
switch fluorescence ratio: 1.06 ± 0.046

TTCTTGTGGG
switch fluorescence ratio: 1.05 ± 0.057

AAGGAGAGTG
switch fluorescence ratio: 0.991 ± 0.028

TGGAGTAGGG
switch fluorescence ratio: 0.9874 ± 0.0062

CAGGACTGTT
switch fluorescence ratio: 1.02 ± 0.011

ATGATTACGT
switch fluorescence ratio: 1.01 ± 0.03

CGGGGGGCTG
switch fluorescence ratio: 0.995 ± 0.04

GCGGGGACAA
switch fluorescence ratio: 1.069 ± 0.0083

TATCCCGGTG
switch fluorescence ratio: 1.82 ± 0.043

ATAATGGGCA
switch fluorescence ratio: 0.983 ± 0.064

CGGAGGGGAA
switch fluorescence ratio: 1 ± 0.014

AAAGCCGGTG
switch fluorescence ratio: 1.022 ± 0.00024

TTGATTATAT
switch fluorescence ratio: 1.02 ± 0.012

TGAGGTGGGG
switch fluorescence ratio: 0.9887 ± 0.0027

TATCGTGAGT
switch fluorescence ratio: 0.9822 ± 0.0071

TTTAATTTGT
switch fluorescence ratio: 1 ± 0.019

TTAGTGTGCT
switch fluorescence ratio: 1 ± 0.026

ATGTAGACGG
switch fluorescence ratio: 0.984 ± 0.011

TTTCGTTTCT
switch fluorescence ratio: 1.03 ± 0.024

ACGGCCTAAA
switch fluorescence ratio: 0.98 ± 0.043

CAGTTGGATT
switch fluorescence ratio: 1.01 ± 0.04

CGGAGGCGTT
switch fluorescence ratio: 0.986 ± 0.041

TCGGCGTAAG
switch fluorescence ratio: 0.998 ± 0.03

CGTCGTAGTG
switch fluorescence ratio: 0.989 ± 0.016

GTGCAAGGCG
switch fluorescence ratio: 0.988 ± 0.032

CTAGGAGTTT
switch fluorescence ratio: 0.999 ± 0.011

ACGGGGGCGT
switch fluorescence ratio: 1.05 ± 0.068

CTCACAGGGG
switch fluorescence ratio: 3.62 ± 0.1

TAGGGAGGA
switch fluorescence ratio: 0.98 ± 0.022

TAGGTTGCGA
switch fluorescence ratio: 0.996 ± 0.021

TAAAATGGGG
switch fluorescence ratio: 1 ± 0.022

GGGTAGGCGC
switch fluorescence ratio: 1.04 ± 0.029

GGGCCACTCG
switch fluorescence ratio: 0.9716 ± 0.0096

CTGGGAGGAT
switch fluorescence ratio: 0.98788 ± 0.0003

TATAAAATCT
switch fluorescence ratio: 1.02 ± 0.082

ACGTGTAGGC
switch fluorescence ratio: 1.01 ± 0.04

TGTGATTTGA
switch fluorescence ratio: 0.9763 ± 0.0026

GCGGTTGCCA
switch fluorescence ratio: 0.982 ± 0.033

CGCGTACATT
switch fluorescence ratio: 1.05 ± 0.077

CGATTAGGGG
switch fluorescence ratio: 1 ± 0.012

ATTTTTAATC
switch fluorescence ratio: 1.06 ± 0.14

GTATTCGTTT
switch fluorescence ratio: 1 ± 0.028

TTTACGTCAG
switch fluorescence ratio: 1.013 ± 0.0034

TCAGGAAAGG
switch fluorescence ratio: 1.003 ± 0.0027

AAGTTATTTT
switch fluorescence ratio: 1.01 ± 0.015

AGTGTACTCG
switch fluorescence ratio: 1.04 ± 0.056

TTTTACTGCT
switch fluorescence ratio: 1.15 ± 0.18

TGGTTGTTGC
switch fluorescence ratio: 0.998 ± 0.043

GGTCGAAAAC
switch fluorescence ratio: 1.06 ± 0.11

TTGATGCCCA
switch fluorescence ratio: 0.97 ± 0.023

TTGTTGAAAT
switch fluorescence ratio: 1.03 ± 0.074

GGTAAACAGG
switch fluorescence ratio: 1.04 ± 0.031

TTTAAGCTAA
switch fluorescence ratio: 1.13 ± 0.23

CACTTCATTT
switch fluorescence ratio: 1.01 ± 0.013

GGGAAATTCG
switch fluorescence ratio: 1.012 ± 0.0039

ACATACTGCA
switch fluorescence ratio: 1.29 ± 0.14

TTGTATGGGT
switch fluorescence ratio: 0.98 ± 0.019

ACGGGCTTTT
switch fluorescence ratio: 1.01 ± 0.012

TATGGCTGTG
switch fluorescence ratio: 1.02 ± 0.06

TCGAGATGTA
switch fluorescence ratio: 1.03 ± 0.067

AACTGGTTG
switch fluorescence ratio: 0.9804 ± 0.009

CACCCTTTTC
switch fluorescence ratio: 1.02 ± 0.024

TTTTATGCTA
switch fluorescence ratio: 1 ± 0.054

GTCCGGCTCG
switch fluorescence ratio: 0.9897 ± 0.0011

CGGGTTGGGG
switch fluorescence ratio: 1 ± 0.016

TATTTCTGAT
switch fluorescence ratio: 0.988 ± 0.016

TCGGTGTTTC
switch fluorescence ratio: 0.962 ± 0.017

GCTTGTTAAA
switch fluorescence ratio: 0.994 ± 0.037

TGGGTTTGGG
switch fluorescence ratio: 0.984 ± 0.035

CACTTTCGT
switch fluorescence ratio: 0.959 ± 0.029

TTCTCGGACG
switch fluorescence ratio: 0.991 ± 0.017

GTTGTTAGGA
switch fluorescence ratio: 0.961 ± 0.02

TTATTTTCGA
switch fluorescence ratio: 0.999 ± 0.021

TTCTGGTATA
switch fluorescence ratio: 1.02 ± 0.024

TGTCAGGGCC
switch fluorescence ratio: 1.04 ± 0.053

AAGGGAACAA
switch fluorescence ratio: 0.999 ± 0.048

ATGAGTTGCG
switch fluorescence ratio: 0.977 ± 0.029

GTTCTGGGGC
switch fluorescence ratio: 0.986 ± 0.028

AAGATGTTGG
switch fluorescence ratio: 1.01 ± 0.04

TGGTTAGGGA
switch fluorescence ratio: 1.01 ± 0.026

AGGTAAGGCT
switch fluorescence ratio: 0.976 ± 0.025

ATCAATGTTC
switch fluorescence ratio: 1.07 ± 0.094

TAGGTGTTTG
switch fluorescence ratio: 0.999 ± 0.018

GAAGGGGGGT
switch fluorescence ratio: 0.997 ± 0.029

GATCCGGGTG
switch fluorescence ratio: 1.38 ± 0.45

ACATGGTTTT
switch fluorescence ratio: 1.01 ± 0.017

ATGGTACCGT
switch fluorescence ratio: 1.02 ± 0.014

CATCGATTGT
switch fluorescence ratio: 1 ± 0.019

TTGAAAAAGT
switch fluorescence ratio: 0.992 ± 0.018

ATAATCGAGT
switch fluorescence ratio: 0.9837 ± 0.0076

AGTGCAGGTG
switch fluorescence ratio: 2.438 ± 0.015

GGGGATTTCA
switch fluorescence ratio: 0.989 ± 0.024

AGGGTTTGCT
switch fluorescence ratio: 0.96929 ± 0.00044

AGGTAGGCAT
switch fluorescence ratio: 1 ± 0.041

ATATTGAGGC
switch fluorescence ratio: 1.01 ± 0.038

TTTGGGTTAA
switch fluorescence ratio: 1.13 ± 0.29

GGTGAGGTGC
switch fluorescence ratio: 0.9995 ± 0.0084

CCGGGGGAAT
switch fluorescence ratio: 1.13 ± 0.16

CTGAGTTACT
switch fluorescence ratio: 1.027 ± 0.0025

GACGGGGACT
switch fluorescence ratio: 1.1 ± 0.025

AAAGAATGGG
switch fluorescence ratio: 0.978 ± 0.017

TTAGAAGTCA
switch fluorescence ratio: 1.0063 ± 0.00067

TCCTTTTAGA
switch fluorescence ratio: 1.01 ± 0.011

AGCATTACCG
switch fluorescence ratio: 1.165 ± 0.0045

TAGCTGAGAC
switch fluorescence ratio: 1.162 ± 0.006

GCGATGGTCG
switch fluorescence ratio: 0.937 ± 0.14

CGGAAGCATT
switch fluorescence ratio: 1.44 ± 0.017

CGAGGTTTTC
switch fluorescence ratio: 0.9817 ± 0.0056

AAAATTAGTT
switch fluorescence ratio: 1.03 ± 0.012

TTAGGCGTGT
switch fluorescence ratio: 1.03 ± 0.031

GGATGGAGGG
switch fluorescence ratio: 0.965 ± 0.02

TTGTGCTGTA
switch fluorescence ratio: 1.02 ± 0.013

CTCTGAGGAG
switch fluorescence ratio: 1.04 ± 0.035

TTTATTGGAC
switch fluorescence ratio: 1.01 ± 0.078

AGTGGTATGA
switch fluorescence ratio: 1.01 ± 0.048

TGTTAGGGTT
switch fluorescence ratio: 1.01 ± 0.04

TCCAACTGCA
switch fluorescence ratio: 1.5 ± 0.087

TGGTTCAGGG
switch fluorescence ratio: 0.997 ± 0.04

AGGGATGTTA
switch fluorescence ratio: 0.991 ± 0.014

TTAAGGGTGT
switch fluorescence ratio: 1.02 ± 0.04

TCGGGATTGA
switch fluorescence ratio: 0.98 ± 0.013

TCGGGGGGCT
switch fluorescence ratio: 1.06 ± 0.048

TCAGGGGCGG
switch fluorescence ratio: 1.04 ± 0.096

CATTTAAAG
switch fluorescence ratio: 1.01 ± 0.031

CTCATAAGTT
switch fluorescence ratio: 1.01 ± 0.028

ATAAGCGGAG
switch fluorescence ratio: 1 ± 0.013

GGTGGTGGCG
switch fluorescence ratio: 1.01 ± 0.059

AGTTGTTTTT
switch fluorescence ratio: 0.983 ± 0.025

CTTTTTGAGG
switch fluorescence ratio: 0.983 ± 0.048

TTCTACACAG
switch fluorescence ratio: 1.04 ± 0.032

CATGTTCTTT
switch fluorescence ratio: 0.999 ± 0.026

GATTATTTAG
switch fluorescence ratio: 0.997 ± 0.019

GCTGAAGGGA
switch fluorescence ratio: 0.99 ± 0.042

GACCTCAGGT
switch fluorescence ratio: 1.08 ± 0.11

GGGGTTTTTT
switch fluorescence ratio: 0.986 ± 0.026

TCGGCTTCCT
switch fluorescence ratio: 1.27 ± 0.031

CATAATCCGA
switch fluorescence ratio: 1.048 ± 0.0029

AAGCCCTAGC
switch fluorescence ratio: 0.976 ± 0.036

GAAATAAATA
switch fluorescence ratio: 0.9835 ± 0.0081

CCTTATAGTT
switch fluorescence ratio: 0.995 ± 0.023

TTTGTTTAAT
switch fluorescence ratio: 1.002 ± 0.0012

GCATATAAAC
switch fluorescence ratio: 1.2 ± 0.17

TCCTATATAA
switch fluorescence ratio: 1.03 ± 0.058

TATAGGCGCT
switch fluorescence ratio: 0.994 ± 0.035

GCCTGCCGTT
switch fluorescence ratio: 0.996 ± 0.033

CGATTTGGGT
switch fluorescence ratio: 1.02 ± 0.042

CCTTCCGTTC
switch fluorescence ratio: 2.66 ± 0.53

GGGAAGAATA
switch fluorescence ratio: 0.986 ± 0.018

ATGTAGCATC
switch fluorescence ratio: 1.56 ± 0.028

TAATTTGTTA
switch fluorescence ratio: 1 ± 0.02

GATGGTTTTT
switch fluorescence ratio: 1 ± 0.016

AAGGTACAAG
switch fluorescence ratio: 1.06 ± 0.047

TAGGGTGGGA
switch fluorescence ratio: 0.99 ± 0.025

ACTTGATGGG
switch fluorescence ratio: 0.992 ± 0.045

AAGGATTATT
switch fluorescence ratio: 0.97 ± 0.024

CGGCATTAAA
switch fluorescence ratio: 0.995 ± 0.0058

AATTTCCTTT
switch fluorescence ratio: 0.988 ± 0.036

TTCGTTAGAA
switch fluorescence ratio: 1.0091 ± 0.00067

CGAGGTGGCG
switch fluorescence ratio: 0.958 ± 0.06

GGGCGGGGGT
switch fluorescence ratio: 1.02 ± 0.019

CCATATCCAA
switch fluorescence ratio: 1.06 ± 0.055

TCTGCCTTTT
switch fluorescence ratio: 1.05 ± 0.074

AGGTATTGGG
switch fluorescence ratio: 1.02 ± 0.043

GATACATTGC
switch fluorescence ratio: 1.07 ± 0.029

GGCACGAGGA
switch fluorescence ratio: 1.04 ± 0.017

TTTAGATTTG
switch fluorescence ratio: 1.024 ± 0.0048

ATATCCAGGA
switch fluorescence ratio: 1.02 ± 0.018

TTCGCGGGTG
switch fluorescence ratio: 1.05 ± 0.025

CGTGGTGTGT
switch fluorescence ratio: 0.992 ± 0.0011

GGTGTTAGGG
switch fluorescence ratio: 1.02 ± 0.027

TAGCTGGGGG
switch fluorescence ratio: 0.995 ± 0.021

CGGGGCAGGT
switch fluorescence ratio: 1.01 ± 0.021

TGTAATCTAC
switch fluorescence ratio: 1.06 ± 0.057
